Numbering of substitutions follows the chain as printed. Names may count otherwise. Values belong to the binder of their own block, whether it stands above or below them.
How the values were obtained:
membrane EGFR = membrane EGFR (human, UniProt P00533 25-1210); experiment: cell-based or functional assay
[1] = target: T1, CD20 on the cell surface of Raji cells (human, UniProt P11836 1-297); experiment: flow cytometry on Raji cells, 100 nM
T1 construct: whole, on cells; also called CD20 (Raji)
T1 sequence (looked up): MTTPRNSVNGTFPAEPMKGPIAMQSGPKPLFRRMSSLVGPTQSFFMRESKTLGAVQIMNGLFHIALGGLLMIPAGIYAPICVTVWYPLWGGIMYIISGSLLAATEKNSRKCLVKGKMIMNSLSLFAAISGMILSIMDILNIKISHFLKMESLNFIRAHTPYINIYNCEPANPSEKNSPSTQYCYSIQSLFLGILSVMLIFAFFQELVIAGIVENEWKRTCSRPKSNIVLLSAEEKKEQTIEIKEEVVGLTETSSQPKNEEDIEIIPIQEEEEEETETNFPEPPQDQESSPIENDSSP

[2] = target: T1, CD20 on the cell surface of Raji cells; experiment: flow cytometry on Raji cells
Description: (§1) Raji cell was used for detecting human B cell binding. […] Cells were washed in PBS buffer containing 2% FBS. […] Cells were washed and signal was detected with a BD FACSVerse flow cytometer according to manufacture's protocols.

[3] = target: T2, cynomolgus CD20 on transiently transfected HEK 293 cells (cynomolgus, UniProt M4ZHZ6 1-297); experiment: flow cytometry on HEK 293 cells transfected with cynoCD20
T2 construct: whole, on cells; also called cynoCD20
T2 sequence: T1 sequence (looked up) with S25P, F31L, T51A, A157V, K217R, N226S, I227V, T239V
Description: as §1

EGFR Depletion (%), H441 cell, FACS after >16 hrs at 37 C (membrane EGFR): 0%
B3: cMet antibody h1332 (13.3.2L-A91T,H-42K,S97T) (antibody, V domains shown)
VH: QVQLVQSGAEVKKPGASVKVSCKASGYTFTSYGFSWVRQAPGQGLEWMGWISASNGNTYYAQKLQGRVTMTTDTSTSTAYMELRSLRSDDTAVYYCARVYADYADYWGQGTLVTVSS
VL: DIQMTQSPSSVSASVGDRVTITCRASQGINTWLAWYQQKPGKAPKLLIYAASSLKSGVPSRFSGSGSGTDFTLTISSLQPEDFATYYCQQANSFPLTFGGGTKVEIK

binding result [2]: binds | binding result [3]: binds
B4: FIT018a CD20 (Ofatumumab)/CD3 mAb (bispecific antibody, human IgG1, kappa, lambda, L234A L235A)
chain 1: not shown
chain 2: EVQLVESGGGLVQPGRSLRLSCAASGFTFNDYAMHWVRQAPGKGLEWVSTISWNSGSIGYADSVKGRFTISRDNAKKSLYLQMNSLRAEDTALYYCAKDIQYGNYYYGMDVWGQGTTVTVSSASTKGPSVFPLAPSSKSTSGGTAALGCLVKDYFPEPVTVSWNSGALTSGVHTFPAVLQSSGLYSLSSVVTVPSSSLGTQTYICNVNHKPSNTKVDKKVEPKSC
chain 3: ELVVTQEPSLTVSPGGTVTLTCRSSTGAVTTSNYANWVQQKPGQAPRGLIGGTNKRAPGTPARFSGSLLGGKAALTLSGVQPEDEAEYYCALWYSNLWVFGGGTKLTVLGQPKAAPSVTLFPPSSEELQANKATLVCLISDFYPGAVTVAWKADSSPVKAGVETTTPSKQSNNKYAASSYLSLTPEQWKSHRSYSCQVTHEGSTVEKTVAPTECS

The remaining lines, values behind:

B1: FIT013a cMet (h1332 (13.3.2L-A91T,H-42K,S97T))/EGFR (panitumumab) (bispecific antibody, human IgG1, kappa)
chain 1: not shown
chain 2: QVQLVQSGAEVKKPGASVKVSCKASGYTFTSYGFSWVRQAPGQGLEWMGWISASNGNTYYAQKLQGRVTMTTDTSTSTAYMELRSLRSDDTAVYYCARVYADYADYWGQGTLVTVSSASTKGPSVFPLAPSSKSTSGGTAALGCLVKDYFPEPVTVSWNSGALTSGVHTFPAVLQSSGLYSLSSVVTVPSSSLGTQTYICNVNHKPSNTKVDKKVEPKSC
chain 3: not shown
EGFR Depletion (%), H441 cell, FACS after >16 hrs at 37 C (membrane EGFR): 65.9%

B2: OKT3/Ofatumumab FIT7-Ig (bispecific antibody, human IgG1, kappa)
chain 1: not shown
chain 2: not shown
chain 3: not shown
notes: FIT-Ig of 3 polypeptides, two copies of each chain, human IgG1 Fc
Binding Intensity by FACS (MFI) [1]: 291 MFI

B5: OKT3/Ofatumumab FIT8-Ig (bispecific antibody, human IgG1, kappa)
chain 1: not shown
chain 2: not shown
chain 3: not shown
notes: as for B2
Binding Intensity by FACS (MFI) [1]: 274 MFI

— US20190233517A1 (published 2019)
